# Measured values as given in patent WO2008121813A2 (dated 2009).
# T1: human DUBA polypeptide (human, UniProt Q96G74 1-571)
# T1 construct: Used for endogenous DUBA of HEK293 and TLR3/293 cells and for human DUBA in transfected cells (Western blot with the hamster antibodies); also called OTUD5; OTU domain containing 5
# T1 sequence: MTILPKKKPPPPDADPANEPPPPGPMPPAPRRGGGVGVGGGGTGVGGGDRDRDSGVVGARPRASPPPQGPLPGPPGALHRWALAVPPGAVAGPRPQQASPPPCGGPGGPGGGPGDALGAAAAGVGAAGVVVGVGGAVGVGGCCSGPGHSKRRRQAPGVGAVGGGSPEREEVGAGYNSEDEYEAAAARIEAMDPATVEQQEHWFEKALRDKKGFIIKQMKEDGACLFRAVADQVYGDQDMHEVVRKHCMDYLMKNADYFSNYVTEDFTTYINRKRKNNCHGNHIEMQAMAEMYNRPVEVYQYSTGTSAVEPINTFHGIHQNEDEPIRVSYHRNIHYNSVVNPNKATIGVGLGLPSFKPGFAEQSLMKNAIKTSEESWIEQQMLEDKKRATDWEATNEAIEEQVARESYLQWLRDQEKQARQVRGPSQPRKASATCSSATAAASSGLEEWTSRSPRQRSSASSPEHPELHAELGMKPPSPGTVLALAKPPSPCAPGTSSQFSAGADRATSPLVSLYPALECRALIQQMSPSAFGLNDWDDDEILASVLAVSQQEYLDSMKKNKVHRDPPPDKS
# B1: endogenous TRAF3 (enzyme, UniProt Q13114 1-568, looked up)
# chain: MESSKKMDSPGALQTNPPLKLHTDRSAGTPVFVPEQGGYKEKFVKTVEDKYKCEKCHLVLCSPKQTECGHRFCESCMAALLSSSSPKCTACQESIVKDKVFKDNCCKREILALQIYCRNESRGCAEQLMLGHLLVHLKNDCHFEELPCVRPDCKEKVLRKDLRDHVEKACKYREATCSHCKSQVPMIALQKHEDTDCPCVVVSCPHKCSVQTLLRSELSAHLSECVNAPSTCSFKRYGCVFQGTNQQIKAHEASSAVQHVNLLKEWSNSLEKKVSLLQNESVEKNKSIQSLHNQICSFEIEIERQKEMLRNNESKILHLQRVIDSQAEKLKELDKEIRPFRQNWEEADSMKSSVESLQNRVTELESVDKSAGQVARNTGLLESQLSRHDQMLSVHDIRLADMDLRFQVLETASYNGVLIWKIRDYKRRKQEAVMGKTLSLYSQPFYTGYFGYKMCARVYLNGDGMGKGTHLSLFFVIMRGEYDALLPWPFKQKVTLMLMDQGSSRRHLGDAFKPDPNSSSFKKPTGEMNIASGCPVFVAQTVLENGTYIKDDTIFIKVIVDTSDLPDP
# notes: RING finger-type ubiquitin ligase; also called TNF receptor-associated factor (TRAF3)
# Biological target: T1, human DUBA polypeptide
# Assay: anti-DUBA immunoprecipitation from TLR3/293 lysates at 0, 60 and 180 minutes, anti-TRAF3 Western blot
binder,measurement,value
B1,binding result,binds
